Reference: patent publication US20250011363A1, “OPTIMIZED SHORTENED PEPTIDE THAT BINDS TO ACETYLCHOLINE RECEPTOR, AND USE THEREOF” (SKINMED CO., LTD., priority 2021, published 2025)

B1: 5mer-771 (peptide)
peptide: RKWVK
B2: 5mer-770 (peptide)
peptide: KKPFR
B3: 5mer-1066 (peptide)
peptide: RFWVK
B4: 5mer-1067 (peptide)
peptide: KHENK
B5: 5mer-1068 (peptide)
peptide: RMHKK
B6: 5mer-1064 (peptide)
peptide: KCMKR
B7: 5mer-766 (peptide)
peptide: RNMEK
B8: 5mer-760 (peptide)
peptide: RIWAR
B9: 5mer-761 (peptide)
peptide: RMPWR
B10: 5mer-765 (peptide)
peptide: RNEFR
B11: 5mer-763 (peptide)
peptide: RCHVR
B12: 5mer-1059 (peptide)
peptide: RMAGR
B13: 5mer-764 (peptide)
peptide: KTWPK
B14: 5mer-768 (peptide)
peptide: RDSWR
B15: 5mer-757 (peptide)
peptide: KYCMR
B16: 5mer-769 (peptide)
peptide: KTEWK
B17: 5mer-1069 (peptide)
peptide: RPSFK
B18: 5mer-767 (peptide)
peptide: RFHFK
B19: 5mer-1063 (peptide)
peptide: RPHVK
B20: 5mer-1058 (peptide)
peptide: KIPWR
B21: 5mer-1057 (peptide)
peptide: RFDPK
B22: 5mer-1060 (peptide)
peptide: KTHIK
B23: 5mer-1061 (peptide)
peptide: KDSFR
B24: 5mer-1070 (peptide)
peptide: RETGK
B25: 5mer-758 (peptide)
peptide: KCDFK
B26: 5mer-1071 (peptide)
peptide: RYEGR
B27: 5mer-762 (peptide)
peptide: KMPER
B28: 5mer-759 (peptide)
peptide: KHKMR
B29: 5mer-772 (peptide)
peptide: KYWFK
B30: 5mer-1065 (peptide)
peptide: KNPIR
B31: 5mer-1062 (peptide)
peptide: RAPWR

These binders were tested against acetylcholine receptor (assay: SPR, receptor immobilized, peptide 10 uM).
For B1, the Binding affinity (RU) was 24 RU. Binder B2 has a Binding affinity (RU) of 11 RU. With B3 the Binding affinity (RU) was 25 RU. B4 showed a Binding affinity (RU) of 23 RU. B5 gave a Binding affinity (RU) of 11 RU. For B6, the Binding affinity (RU) was 20 RU. With B7 the Binding affinity (RU) was 30 RU. B8 was tested, and the Binding affinity (RU) was 19 RU. For B9, the Binding affinity (RU) was 31 RU. B10 gave a Binding affinity (RU) of 12 RU. In the case of B11, the Binding affinity (RU) is reported as 30 RU. B12 gave a Binding affinity (RU) of 29 RU. B13 gave a Binding affinity (RU) of 19 RU. Work on B14 yielded a Binding affinity (RU) of 11 RU. With B15 the Binding affinity (RU) was 17 RU. B16 was tested, and the Binding affinity (RU) was 32 RU. With B17 the Binding affinity (RU) was 31 RU. Binder B18 has a Binding affinity (RU) of 12 RU. Binder B19 has a Binding affinity (RU) of 20 RU. For B20, the Binding affinity (RU) was 25 RU. For B21, the Binding affinity (RU) was 13 RU. For B22, the Binding affinity (RU) was 29 RU. B23 gave a Binding affinity (RU) of 24 RU. For B24, the Binding affinity (RU) was 26 RU. In the case of B25, the Binding affinity (RU) is reported as 30 RU. B26 was tested, and the Binding affinity (RU) was 16 RU. For B27, the Binding affinity (RU) was 21 RU. In the case of B28, the Binding affinity (RU) is reported as 17 RU. With B29 the Binding affinity (RU) was 11 RU. Binder B30 has a Binding affinity (RU) of 18 RU. B31 showed a Binding affinity (RU) of 24 RU.
